In article PMC10808242, “Antibodies from dengue patients with prior exposure to Japanese encephalitis virus are broadly neutralizing against Zika virus” (Communications Biology, 2024):

B1: huMAb K8b expressed as full-length human IgG1 (K8b-IgG1) (antibody, V domains shown)
VH: QVQLVQPGAEVVKPGASVKLSCKTSGYTFTSNWMHWVKQAPGQGLEWIGEIDPSDSYTNYNQNFQGKAKLTVDKSTSTAYMEVSSLRSDDTAVYYCARGSNPYYYAMDYWGQGTSVTVSS
VL: EIVMMQSPLTLSLSPGERATLSCRASQSVSSNYLAWYQQRPGQAPRLLIYGVSSRATGVPVRFSGSGSGTDFTLTISRLEPEDFAVYYCQHYGGSLSWTFGQGTKVEIK
notes: also called pVCHIg-hG1-K8b + pVCLIg-hκ-K8b
B2: huMAb K5 expressed as full-length human IgG1 (K5-IgG1) (antibody, V domains shown)
VH: EVQLLESGAEVKKPGSSVKVSCQASGDTFSNSDINWVRQAPGQGLEWMGGIIPAYDTTNYARTFQGRVAITADKSTSTVYMELSRLRSEDTAVYYCATDQRDYFGLGNHFNAQHFWGQGTLVTVSS
VL: AIRMTQTPLSLSASVGDRVTITCRASQSISNYLNWYQQRPGKAPNLLIYTASNLHSGVPSRFSGSGSGTDFTLTISSLQPEDFATYYCQQSYSGGYTFGQGPSWEIK

Experiments:
[1] = molecular target: T1, mature form virus-like particles of dengue virus serotype 2 (mD2VLP) (Dengue virus type 2, strain 16681 …, UniProt A0A173DS53); assay: cryo-EM structure; details: both partners purified
T1 construct: also called mature DENV-2 VLP; pVD2i-C18S; copies: 60 +

[2] = molecular target: ZIKV VLP with E T231A (Zika virus); assay: ELISA
[3] = molecular target: ZIKV VLP with E R193A (Zika virus); assay: ELISA
[4] = molecular target: DENV-1 virus-like particle (prM/E VLP) (dengue virus serotype 1)

Binder	stoichiometry N [1]	percent loss of binding relative to ZIKV WT VLP [2] [%]	percent loss of binding relative to ZIKV WT VLP [3] [%]	FRμNT50, neutralisation of the prototype DENV-1 strain on Vero cells [4] [µg/mL]
B1	60 F(ab) arms per VLP of 60 E proteins			
B2		70	70	0.771
